The supplement of paper PMC10567573

B1: FAM164A (parent)
chain: YDPDYIQCPYCQRRFNENAADRHI
B2: CHMP4C (parent)
chain: TNIRLPNVPSSSLPAQPNRKPGMS

Variants of: B1
Assay: protein stability index of a GFP-peptide fusion (GPS, HEK-293T) (PSI 1-6); higher = more stable
Settings: c terminus: a fixed tail appended
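Further: lentivirally expressed fusions sorted by FACS into six bins by GFP to DsRed ratio, PSI derived from sequencing read proportions per bin multiplied by bin number.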

Protein stability index of substitutions, site by site:
A19: L 4.03 | G 4.41 | H 4.12 | C 4.42 | F 4.24 | S 4.59 | D 4.47 | W 3.66 | E 4.61 | M 3.88 | Y 3.58 | K 4 | P 4.03 | T 4.51 | Q 4.37 | N 4.37 | R 4.11 | I 4.02 | V 3.82
P9: E 3.11 | Y 2.07 | F 2.18 | Q 3.14 | N 2.75 | M 2.39 | R 2.58 | T 2.55 | V 2.44 | L 2.09 | H 2.83 | W 2.52 | I 2.29 | S 2.95 | K 2.58 | G 2.54
A20: D 4.25 | L 4.25 | W 3.52 | M 4.12 | V 4.36 | E 4.34 | F 3.87 | I 4.37 | Q 3.82 | Y 3.78 | G 3.85 | T 3.93 | P 3.52 | S 4 | N 4.49 | R 4.24 | K 3.76 | C 4.44 | H 3.95
R22: Y 3.81 | K 4.51 | V 4.17 | A 4.49 | N 4.29 | C 4.43 | H 4.46 | L 4.08 | S 4.03 | T 4.02 | E 4.47 | Q 4.59 | M 4.48 | I 4.03 | G 4.24 | D 4.57 | W 3.15 | F 3.26 | P 4.29
F15: T 2.48 | P 2.8 | I 4.21 | A 3.08 | L 3.77 | E 3.59 | S 2.93 | N 3.18 | R 3.59 | Q 3.4 | H 3.14 | G 2.83 | W 4 | C 3.34 | Y 3.47 | K 3.54 | D 3.17 | V 3.06 | M 3.66
Q12: V 2.48 | P 2.64 | S 3.52 | F 4.24 | Y 4.3 | H 4.93 | N 4.05 | W 3.61 | I 2.52 | L 4.9 | M 3.85 | C 3.84 | E 4.04 | A 4.08 | R 4.27 | D 3.26 | T 2.4 | K 5.16 | G 4.74
N18: G 3.92 | S 4.28 | H 4.37 | F 3.22 | W 3.4 | K 4.11 | Q 4.76 | I 3.36 | Y 3.72 | D 4.5 | E 4.26 | V 3.86 | T 4.11 | M 3.48 | A 4.22 | L 3.93 | R 3.71 | P 3.91 | C 4.15
N16: C 4.37 | S 4.56 | G 3.71 | R 5.19 | L 4.45 | E 3.97 | A 4.63 | M 4.54 | K 4.8 | Q 4.56 | F 4.49 | H 3.8 | V 4.39 | D 3.79 | I 4.75 | P 5.53 | Y 4.94 | W 4.61 | T 4.48
Y10: M 3.53 | N 3.91 | D 3.36 | F 4.28 | V 3.49 | R 2.99 | P 3.72 | T 3.56 | H 3.6 | L 3.02 | K 3.66 | G 3.32 | W 3.89 | C 3.23 | A 4.5 | Q 3.45 | I 3.15 | E 3.26 | S 3.9
R14: E 3.88 | W 5.12 | Q 4.24 | G 2.81 | M 3.77 | V 4.67 | N 2.68 | D 3.08 | K 4.01 | T 4.45 | P 3.9 | A 4.16 | C 4.41 | Y 4.52 | S 4.11 | F 5.24 | I 4.64 | L 4.28 | H 4
D21: W 3.51 | R 4.07 | V 4.25 | H 3.93 | L 4.55 | N 4.72 | K 4.46 | C 4.8 | G 3.9 | F 3.72 | E 4.42 | T 4.21 | Y 4.03 | I 4.63 | Q 4.71 | S 4.57 | A 4.33 | P 3.92 | M 3.94
E17: I 5.23 | P 5.37 | W 4.77 | Y 4.68 | G 4.5 | S 4.69 | V 5.04 | T 4.91 | R 4.89 | F 5.14 | N 5.01 | C 5.13 | Q 4.94 | K 5.07 | M 5.01 | D 4.37 | L 5.16 | H 4.97 | A 5.13
H23: V 4.25 | L 3.9 | N 4.15 | I 4.21 | W 3.63 | Y 3.83 | D 4.81 | P 3.86 | C 4.54 | K 4.11 | T 3.65 | Q 4.22 | E 5.08 | S 3.67 | G 4.05 | A 4.4 | R 3.96 | F 3.3 | M 4.4
R13: K 4.32 | N 3.68 | V 2.23 | Y 2.7 | I 2.92 | Q 3.75 | S 3.62 | T 2.41 | H 3.51 | D 3.16 | F 3.18 | C 3.17 | G 4.23 | L 2.64 | A 3.76 | P 2.24 | E 3.07 | W 2.13 | M 4.03
C11: H 3.69 | S 4.03 | M 3.65 | T 3.72 | Y 3.45 | V 3.57 | D 3.81 | R 3.06 | N 4.36 | E 4.23 | W 3.42 | A 3.48 | I 3.22 | Q 3.47 | K 3.57 | L 3.13 | G 3.75 | F 3.45 | P 3.65
I24: T 4.18 | N 4.47 | F 3.88 | C 4.12 | M 4.03 | E 4.25 | H 4.4 | S 4.56 | K 4.29 | G 4.43 | V 4.6 | A 4.74 | W 2.89 | L 3.88 | R 3.9 | P 4.25 | Q 4.57 | Y 4.01 | D 4.92

Variants of: B2
Assay: as above
Settings: c terminus: a fixed tail appended

Protein stability index: each site, then its substitutions
N2: F 3.43 | M 4.66 | P 5.25 | Q 4.27 | R 4.08 | I 3.44 | C 3.87 | D 4.77 | K 4.24 | G 4.24 | A 4.67 | H 4.51 | E 5.05 | L 3.44
T1: H 4.56 | R 4.77 | A 4.63 | N 4.82 | I 3.03 | L 3.24 | M 4.17 | V 3.62 | Q 4.75 | S 4.4 | E 3.75 | P 4.8 | C 4.14 | Y 3.71 | G 4.8 | D 4.71 | F 3.6 | W 3.62 | K 4.55
